Test results from the supplement of paper PMC11246515.
± gives the standard deviation of the averaged measurements.

Test: total protein half-life in vivo (active degradation + dilution); higher = more stable protein
[1] = E. coli NCM3722 delta-clpP delta-lon delta-hslV, growth: N-lim chemostat, doubling time 6 h
[2] = E. coli NCM3722 delta-clpP, growth: N-lim chemostat, doubling time 6 h
[3] = E. coli NCM3722 delta-hslV, growth: N-lim chemostat, doubling time 6 h
[4] = E. coli NCM3722 delta-lon, growth: N-lim chemostat, doubling time 6 h
[5] = E. coli NCM3722 delta-smpB, growth: N-lim chemostat, doubling time 6 h
[6] = wild type E. coli NCM3722, growth: C-lim chemostat, doubling time 3 h
[7] = wild type E. coli NCM3722, growth: C-lim chemostat, doubling time 12 h
[8] = wild type E. coli NCM3722, growth: N-lim chemostat, doubling time 6 h
[9] = wild type E. coli NCM3722, growth: N-lim chemostat, doubling time 12 h
[10] = wild type E. coli NCM3722, growth: P-lim chemostat, doubling time 12 h
[11] = wild type E. coli NCM3722, growth: C-lim chemostat, doubling time 6 h
[12] = wild type E. coli NCM3722, growth: P-lim chemostat, doubling time 6 h

Sequence	total protein half-life in vivo [1] [h]	total protein half-life in vivo [2] [h]	total protein half-life in vivo [3] [h]	total protein half-life in vivo [4] [h]	total protein half-life in vivo [5] [h]	total protein half-life in vivo [6] [h]	total protein half-life in vivo [7] [h]	total protein half-life in vivo [8] [h]	total protein half-life in vivo [9] [h]	total protein half-life in vivo [10] [h]	total protein half-life in vivo [11] [h]	total protein half-life in vivo [12] [h]
MPEGPEIRRAADNLEAAIKGKPLTDVWFAFPQLKPYQSQLIGQHVTHVETRGKALLTHFSNDLTLYSHNQLYGVWRVVDTGEEPQTTRVLRVKLQTADKTILLYSASDIEMLTPEQLTTHPFLQRVGPDVLDPNLTPEVVKERLLSPRFRNRQFAGLLLDQAFLAGLGNYLRVEILWQVGLTGNHKAKDLNAAQLDALAHALLEIPRFSYATRGQVDENKHHGALFRFKVFHRDGEPCERCGSIIEKTTLSSRPFYWCPGCQH	5.54 ± 0.6	5.55 ± 0.23	6.197 ± 0.018	6.19 ± 0.85	4.38 ± 0.63	2.36 ± 0.55	9.48	5.45	11 ± 0.57	7.33	–	–
MPFKPLVTAGIESLLNTFLYRSPALKTARSRLLGKVLRVEVKGFSTSLILVFSERQVDVLGEWAGDADCTVIAYASVLPKLRDRQQLTALIRSGELEVQGDIQVVQNFVALADLAEFDPAELLAPYTGDIAAEGISKAMRGGAKFLHHGIKRQQRYVAEAITEEWRMAPGPLEVAWFAEETAAVERAVDALTKRLEKLEAK [P0ADP7]	5.27 ± 0.14	–	–	4.977 ± 0.043	4.88 ± 0.14	2.77 ± 0.21	7.62 ± 0.27	4.76 ± 0.091	8.56 ± 0.1	8.919 ± 0.012	4.84 ± 0.24	4.93 ± 0.25
MPFTLGQRWISDTESELGLGTVVAVDARTVTLLFPSTGENRLYARSDSPVTRVMFNPGDTITSHDGWQMQVEEVKEENGLLTYIGTRLDTEESGVALREVFLDSKLVFSKPQDRLFAGQIDRMDRFALRYRARKYSSEQFRMPYSGLRGQRTSLIPHQLNIAHDVGRRHAPRVLLADEVGLGKTIEAGMILHQQLLSGAAERVLIIVPETLQHQWLVEMLRRFNLRFALFDDERYAEAQHDAYNPFDTEQLVICSLDFARRSKQRLEHLCEAEWDLLVVDEAHHLVWSEDAPSREYQAIEQLAEHVPGVLLLTATPEQLGMESHFARLRLLDPNRFHDFAQFVEEQKNYRPVADAVAMLLAGNKLSNDELNMLGEMIGEQDIEPLLQAANSDSEDAQSARQELVSMLMDRHGTSRVLFRNTRNGVKGFPKRELHTIKLPLPTQYQTAIKVSGIMGARKSAEDRARDMLYPERIYQEFEGDNATWWNFDPRVEWLMGYLTSHRSQKVLVICAKAATALQLEQVLREREGIRAAVFHEGMSIIERDRAAAWFAEEDTGAQVLLCSEIGSEGRNFQFASHMVMFDLPFNPDLLEQRIGRLDRIGQAHDIQIHVPYLEKTAQSVLVRWYHEGLDAFEHTCPTGRTIYDSVYNDLINYLASPDQTEGFDDLIKNCREQHEALKAQLEQGRDRLLEIHSNGGEKAQALAESIEEQDDDTNLIAFAMNLFDIIGINQDDRGDNMIVLTPSDHMLVPDFPGLSEDGITITFDREVALAREDAQFITWEHPLIRNGLDLILSGDTGSSTISLLKNKALPVGTLLVELIYVVEAQAPKQLQLNRFLPPTPVRMLLDKNGNNLAAQVEFETFNRQLNAVNRHTGSKLVNAVQQDVHAILQLGEAQIEKSARALIDAARNEADEKLSAELSRLEALRAVNPNIRDDELTAIESNRQQVMESLDQAGWRLDALRLIVVTHQ	5.68 ± 0.18	5.48 ± 0.61	5.139 ± 0.024	5.36 ± 0.42	5.21 ± 0.39	3.11 ± 0.088	12.5 ± 1.6	5.09 ± 0.06	9.51 ± 1.1	12.1 ± 1.1	6.26 ± 0.79	6.156 ± 0.013
MPGKIAVEVAYALPEKQYLQRVTLQEGATVEEAIRASGLLELRTDIDLTKNKVGIYSRPAKLSDSVHDGDRVEIYRPLIADPKELRRQRAEKSANK	5.54 ± 0.24	5.02 ± 0.35	3.33	4.06	2.89 ± 0.05	2.87	6.3 ± 3.5	3.34 ± 0.09	5.54	8.44 ± 1	5.02 ± 0.71	5.31
MPGRFELKPTLEKVWHAPDNFRFMDPLPPMHRRGIIIAAIVLVVGFLLPSDDTPNAPVVTREAQLDIQSQSQPPTEEQLRAQLVTPQNDPDQVAPVAPEPIQEGQPEEQPQTTQTQPFQPDSGIDNQWRSYRVEPGKTMAQLFRDHGLPATDVYAMAQVEGAGKPLSNLQNGQMVKIRQNASGVVTGLTIDTGNNQQVLFTRQPDGSFIRAR	5.6 ± 0.12	6.35 ± 0.2	5.57 ± 0.45	6.65 ± 0.27	6.12 ± 0.68	–	9.18 ± 0.36	5.79 ± 1.1	11.4 ± 0.3	8.86 ± 0.21	5 ± 0.64	–
MPHHIVIVEDEPVTQARLQSYFTQEGYTVSVTASGAGLREIMQNQSVDLILLDINLPDENGLMLTRALRERSTVGIILVTGRSDRIDRIVGLEMGADDYVTKPLELRELVVRVKNLLWRIDLARQAQPHTQDNCYRFAGYCLNVSRHTLERDGEPIKLTRAEYEMLVAFVTNPGEILSRERLLRMLSARRVENPDLRTVDVLIRRLRHKLSADLLVTQHGEGYFLAADVC	5.18 ± 0.63	4.57 ± 0.43	–	4.9	3.92 ± 0.089	2.78 ± 0.039	9.618 ± 0.075	3.89 ± 0.33	5.93	9.93 ± 0.41	5.13 ± 0.33	4.28
MPHIDIKCFPRELDEQQKAALAADITDVIIRHLNSKDSSISIALQQIQPESWQAIWDAEIAPQMEALIKKPGYSMNA	–	–	–	–	–	–	–	–	–	–	–	2.92
MPHSDELDAGNVLAVENLNIAFMQDQQKIAAVRNLSFSLQRGETLAIVGESGSGKSVTALALMRLLEQAGGLVQCDKMLLQRRSREVIELSEQNAAQMRHVRGADMAMIFQEPMTSLNPVFTVGEQIAESIRLHQNASREEAMVEAKRMLDQVRIPEAQTILSRYPHQLSGGMRQRVMIAMALSCRPAVLIADEPTTALDVTIQAQILQLIKVLQKEMSMGVIFITHDMGVVAEIADRVLVMYQGEAVETGTVEQIFHAPQHPYTRALLAAVPQLGAMKGLDYPRRFPLISLEHPAKQAPPIEQKTVVDGEPVLRVRNLVTRFPLRSGLLNRVTREVHAVEKVSFDLWPGETLSLVGESGSGKSTTGRALLRLVESQGGEIIFNGQRIDTLSPGKLQALRRDIQFIFQDPYASLDPRQTIGDSIIEPLRVHGLLPGKDAAARVAWLLERVGLLPEHAWRYPHEFSGGQRQRICIARALALNPKVIIADEAVSALDVSIRGQIINLLLDLQRDFGIAYLFISHDMAVVERISHRVAVMYLGQIVEIGPRRAVFENPQHPYTRKLLAAVPVAEPSRQRPQRVLLSDDLPSNIHLRGEEVAAVSLQCVGPGHYVAQPQSEYAFMRR	5.29 ± 0.17	3.52 ± 0.092	4 ± 0.11	4.37 ± 0.63	3.88 ± 0.28	2.37 ± 0.21	6.1 ± 0.44	3.6 ± 0.015	7.19 ± 1.5	6.87 ± 0.34	3.9527 ± 0.00027	4.059 ± 0.034
